No end group written: not given here.
Experiments:
Experiment in all cases: Kinase Profiling Assay
Assay type in all cases: biochemical
Settings in all cases: peptide 100 μM
CHK2(h) = CHK2(h) (Homo sapiens, UniProt O96017)
Method in brief: (§1)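 Activity remaining relative to an uninhibited control was determined by scintillation counting of labeled substrate bound to a negatively charged filter. Radiolabeled phosphate came from ATP; the substrate carried positive charge. Duplicate measurements, within a 266-kinase human panel.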

Fer(h) = Fer(h) (Homo sapiens, UniProt P16591)
Fer(h), sequence (P16591 whole entry): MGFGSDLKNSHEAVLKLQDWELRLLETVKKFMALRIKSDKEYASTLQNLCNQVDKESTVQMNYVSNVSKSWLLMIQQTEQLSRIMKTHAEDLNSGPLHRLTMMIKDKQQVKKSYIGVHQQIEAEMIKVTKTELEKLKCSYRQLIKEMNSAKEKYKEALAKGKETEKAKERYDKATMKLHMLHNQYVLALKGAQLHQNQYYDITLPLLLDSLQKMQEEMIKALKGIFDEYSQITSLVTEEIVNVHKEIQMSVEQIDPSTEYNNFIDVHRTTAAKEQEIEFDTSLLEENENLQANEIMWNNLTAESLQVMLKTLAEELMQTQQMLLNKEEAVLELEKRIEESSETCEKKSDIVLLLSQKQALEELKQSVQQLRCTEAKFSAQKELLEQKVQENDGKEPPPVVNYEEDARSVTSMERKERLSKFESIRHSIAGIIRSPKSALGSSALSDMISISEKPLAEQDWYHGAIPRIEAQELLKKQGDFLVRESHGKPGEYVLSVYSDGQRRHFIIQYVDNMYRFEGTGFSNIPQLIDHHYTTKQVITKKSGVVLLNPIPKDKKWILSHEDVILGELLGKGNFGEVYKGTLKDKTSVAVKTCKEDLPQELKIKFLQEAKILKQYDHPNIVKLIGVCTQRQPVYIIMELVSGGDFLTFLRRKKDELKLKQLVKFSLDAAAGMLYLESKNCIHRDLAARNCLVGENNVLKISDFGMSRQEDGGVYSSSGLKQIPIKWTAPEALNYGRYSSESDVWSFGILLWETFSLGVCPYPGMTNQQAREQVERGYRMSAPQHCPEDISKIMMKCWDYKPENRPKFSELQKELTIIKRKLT
Method in brief: as §1

PKCε(h) = biological target: T1, PKCε(h) (Homo sapiens, UniProt Q02156)
T1 sequence (Q02156 1-737): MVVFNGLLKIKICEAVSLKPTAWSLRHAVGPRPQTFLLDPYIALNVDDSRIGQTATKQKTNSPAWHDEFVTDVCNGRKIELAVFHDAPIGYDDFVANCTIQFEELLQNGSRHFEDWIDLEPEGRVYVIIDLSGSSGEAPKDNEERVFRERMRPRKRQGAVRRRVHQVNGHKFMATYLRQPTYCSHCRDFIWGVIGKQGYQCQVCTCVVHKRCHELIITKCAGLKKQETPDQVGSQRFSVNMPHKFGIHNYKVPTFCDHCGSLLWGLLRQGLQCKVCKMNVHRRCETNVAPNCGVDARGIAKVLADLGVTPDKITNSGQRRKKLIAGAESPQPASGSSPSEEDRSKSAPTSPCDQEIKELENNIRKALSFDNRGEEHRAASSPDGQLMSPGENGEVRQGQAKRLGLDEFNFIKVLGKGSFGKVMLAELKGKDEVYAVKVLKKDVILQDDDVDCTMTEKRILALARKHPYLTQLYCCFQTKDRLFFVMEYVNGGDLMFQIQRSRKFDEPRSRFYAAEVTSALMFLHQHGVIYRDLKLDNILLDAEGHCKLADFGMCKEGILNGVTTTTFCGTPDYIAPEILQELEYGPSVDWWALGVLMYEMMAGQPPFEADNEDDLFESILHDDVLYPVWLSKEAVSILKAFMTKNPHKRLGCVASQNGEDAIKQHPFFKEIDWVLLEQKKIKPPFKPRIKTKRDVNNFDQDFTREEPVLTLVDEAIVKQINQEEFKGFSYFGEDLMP
Method in brief: as §1

PKCμ(h) = biological target: T2, PKCμ(h) (Homo sapiens, UniProt Q15139)
T2 sequence (Q15139 1-912): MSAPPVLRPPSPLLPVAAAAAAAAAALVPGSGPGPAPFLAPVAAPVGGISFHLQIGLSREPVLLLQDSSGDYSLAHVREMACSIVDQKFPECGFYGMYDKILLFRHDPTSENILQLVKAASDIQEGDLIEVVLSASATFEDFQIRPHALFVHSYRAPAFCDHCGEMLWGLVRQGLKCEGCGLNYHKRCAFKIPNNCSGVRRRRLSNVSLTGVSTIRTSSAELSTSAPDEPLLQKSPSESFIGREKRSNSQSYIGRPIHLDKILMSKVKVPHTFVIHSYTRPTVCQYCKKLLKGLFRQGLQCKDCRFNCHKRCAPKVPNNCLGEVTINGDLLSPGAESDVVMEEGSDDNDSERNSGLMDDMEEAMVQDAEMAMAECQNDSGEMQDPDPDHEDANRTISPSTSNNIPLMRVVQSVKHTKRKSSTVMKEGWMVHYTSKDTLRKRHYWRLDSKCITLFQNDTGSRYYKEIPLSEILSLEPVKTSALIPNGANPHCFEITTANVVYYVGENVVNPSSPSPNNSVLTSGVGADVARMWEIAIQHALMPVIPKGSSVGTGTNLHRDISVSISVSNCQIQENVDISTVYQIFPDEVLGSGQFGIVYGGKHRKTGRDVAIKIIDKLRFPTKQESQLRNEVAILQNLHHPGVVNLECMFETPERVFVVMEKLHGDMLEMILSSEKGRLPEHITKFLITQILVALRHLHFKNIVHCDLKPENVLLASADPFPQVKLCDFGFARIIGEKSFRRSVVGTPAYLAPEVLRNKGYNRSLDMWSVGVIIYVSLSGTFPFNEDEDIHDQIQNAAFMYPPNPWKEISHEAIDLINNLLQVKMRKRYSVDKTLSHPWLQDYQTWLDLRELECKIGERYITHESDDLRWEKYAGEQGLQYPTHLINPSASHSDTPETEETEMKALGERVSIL
Method in brief: as §1

CaMKIIδ(h) = CaMKIIδ(h) (Homo sapiens, UniProt Q13557)
CaMKIIδ(h), sequence (Q13557 whole entry): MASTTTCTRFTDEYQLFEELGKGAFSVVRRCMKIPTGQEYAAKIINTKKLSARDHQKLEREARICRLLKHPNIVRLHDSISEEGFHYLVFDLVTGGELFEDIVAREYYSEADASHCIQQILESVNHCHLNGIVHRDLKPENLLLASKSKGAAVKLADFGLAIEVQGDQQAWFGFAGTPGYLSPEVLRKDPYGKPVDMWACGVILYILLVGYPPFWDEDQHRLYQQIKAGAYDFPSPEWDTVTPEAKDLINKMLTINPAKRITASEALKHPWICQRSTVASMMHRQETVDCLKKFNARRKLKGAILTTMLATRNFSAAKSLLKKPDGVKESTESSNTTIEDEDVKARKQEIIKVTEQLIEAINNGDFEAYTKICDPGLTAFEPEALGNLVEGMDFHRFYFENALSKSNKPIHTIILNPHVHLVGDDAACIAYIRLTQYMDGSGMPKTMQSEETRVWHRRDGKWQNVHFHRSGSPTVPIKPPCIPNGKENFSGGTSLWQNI
Method in brief: as §1

CaMKIV(h) = biological target: T3, CaMKIV(h) (Homo sapiens, UniProt Q16566)
T3 sequence (Q16566 1-473): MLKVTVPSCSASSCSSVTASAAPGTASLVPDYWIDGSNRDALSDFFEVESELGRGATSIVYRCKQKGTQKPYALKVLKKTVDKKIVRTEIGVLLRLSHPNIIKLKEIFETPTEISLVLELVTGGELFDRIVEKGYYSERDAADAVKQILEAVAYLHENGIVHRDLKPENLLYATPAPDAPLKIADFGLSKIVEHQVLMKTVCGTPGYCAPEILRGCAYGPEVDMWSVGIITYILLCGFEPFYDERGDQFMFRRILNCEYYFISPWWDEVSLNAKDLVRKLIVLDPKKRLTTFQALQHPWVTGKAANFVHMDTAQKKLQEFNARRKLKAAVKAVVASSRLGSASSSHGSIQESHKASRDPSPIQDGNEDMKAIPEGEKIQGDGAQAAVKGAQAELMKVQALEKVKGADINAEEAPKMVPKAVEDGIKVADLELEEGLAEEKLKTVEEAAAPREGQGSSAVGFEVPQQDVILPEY
Method in brief: as §1

Yes(h) = Yes(h) (Homo sapiens, UniProt P07947)
Yes(h), sequence (P07947 whole entry): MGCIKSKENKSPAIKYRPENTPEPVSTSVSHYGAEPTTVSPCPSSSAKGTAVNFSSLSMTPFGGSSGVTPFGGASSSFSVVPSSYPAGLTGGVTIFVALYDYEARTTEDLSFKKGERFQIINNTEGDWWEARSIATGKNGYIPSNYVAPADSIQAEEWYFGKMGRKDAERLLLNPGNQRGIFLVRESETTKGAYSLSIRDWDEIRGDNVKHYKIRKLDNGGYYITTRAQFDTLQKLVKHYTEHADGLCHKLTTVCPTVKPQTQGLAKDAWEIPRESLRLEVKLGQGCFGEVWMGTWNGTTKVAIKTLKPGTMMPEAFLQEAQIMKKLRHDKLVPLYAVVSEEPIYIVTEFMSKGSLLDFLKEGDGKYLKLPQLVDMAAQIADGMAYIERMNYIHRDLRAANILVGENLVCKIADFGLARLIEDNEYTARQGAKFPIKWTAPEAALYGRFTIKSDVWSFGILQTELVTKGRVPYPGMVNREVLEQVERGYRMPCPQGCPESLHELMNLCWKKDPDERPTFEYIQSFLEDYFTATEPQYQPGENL
Method in brief: as §1

TLK2(h) = TLK2(h) (Homo sapiens, UniProt Q86UE8)
TLK2(h), sequence (Q86UE8 whole entry): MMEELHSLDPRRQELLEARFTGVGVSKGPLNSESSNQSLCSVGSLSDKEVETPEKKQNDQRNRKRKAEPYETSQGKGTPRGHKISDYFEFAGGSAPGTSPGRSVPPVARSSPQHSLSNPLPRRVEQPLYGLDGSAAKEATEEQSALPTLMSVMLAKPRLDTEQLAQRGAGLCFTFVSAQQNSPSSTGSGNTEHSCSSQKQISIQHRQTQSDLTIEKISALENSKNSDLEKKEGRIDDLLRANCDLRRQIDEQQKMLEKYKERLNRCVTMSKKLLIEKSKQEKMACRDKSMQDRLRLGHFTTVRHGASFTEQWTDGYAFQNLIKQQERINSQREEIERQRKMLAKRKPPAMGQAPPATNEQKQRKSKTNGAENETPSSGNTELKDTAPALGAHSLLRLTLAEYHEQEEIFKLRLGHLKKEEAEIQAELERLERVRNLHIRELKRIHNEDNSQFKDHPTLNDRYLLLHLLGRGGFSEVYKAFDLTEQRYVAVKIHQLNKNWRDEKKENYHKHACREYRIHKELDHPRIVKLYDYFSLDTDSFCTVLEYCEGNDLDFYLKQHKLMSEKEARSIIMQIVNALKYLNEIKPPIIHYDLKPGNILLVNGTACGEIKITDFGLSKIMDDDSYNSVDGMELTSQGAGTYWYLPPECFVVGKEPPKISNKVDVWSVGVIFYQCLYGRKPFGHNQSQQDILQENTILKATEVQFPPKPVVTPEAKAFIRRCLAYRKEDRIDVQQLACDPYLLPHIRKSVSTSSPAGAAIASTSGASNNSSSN
Method in brief: as §1

ACK1(h) = ACK1(h) (Homo sapiens, UniProt Q07912)
ACK1(h), sequence (Q07912 whole entry): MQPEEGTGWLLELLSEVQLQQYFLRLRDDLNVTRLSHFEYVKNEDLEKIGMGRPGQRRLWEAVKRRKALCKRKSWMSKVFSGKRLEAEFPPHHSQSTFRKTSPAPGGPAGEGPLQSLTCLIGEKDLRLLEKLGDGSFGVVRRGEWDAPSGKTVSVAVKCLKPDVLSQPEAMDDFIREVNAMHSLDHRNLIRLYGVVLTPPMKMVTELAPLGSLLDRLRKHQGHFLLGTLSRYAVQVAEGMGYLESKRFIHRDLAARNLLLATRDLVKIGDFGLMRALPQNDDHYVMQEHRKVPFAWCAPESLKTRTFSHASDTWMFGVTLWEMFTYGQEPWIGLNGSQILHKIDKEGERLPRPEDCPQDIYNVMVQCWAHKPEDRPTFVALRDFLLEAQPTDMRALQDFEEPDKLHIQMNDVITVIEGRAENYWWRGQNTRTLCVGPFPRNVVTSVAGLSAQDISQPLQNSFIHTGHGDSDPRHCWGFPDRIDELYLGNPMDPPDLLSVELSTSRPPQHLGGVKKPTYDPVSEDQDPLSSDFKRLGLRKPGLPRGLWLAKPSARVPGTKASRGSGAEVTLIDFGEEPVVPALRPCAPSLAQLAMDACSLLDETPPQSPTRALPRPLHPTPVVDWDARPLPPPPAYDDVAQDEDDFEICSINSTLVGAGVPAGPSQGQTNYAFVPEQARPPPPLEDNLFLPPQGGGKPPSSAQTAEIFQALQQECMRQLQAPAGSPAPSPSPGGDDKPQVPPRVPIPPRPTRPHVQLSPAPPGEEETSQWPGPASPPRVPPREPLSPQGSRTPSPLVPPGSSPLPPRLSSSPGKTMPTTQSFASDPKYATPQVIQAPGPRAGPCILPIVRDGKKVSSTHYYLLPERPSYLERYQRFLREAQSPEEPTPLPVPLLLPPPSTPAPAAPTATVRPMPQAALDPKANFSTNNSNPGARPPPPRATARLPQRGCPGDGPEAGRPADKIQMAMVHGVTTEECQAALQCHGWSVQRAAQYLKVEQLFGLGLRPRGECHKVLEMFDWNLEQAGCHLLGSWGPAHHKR
Method in brief: as §1

CHK2(h), sequence (O96017 whole entry): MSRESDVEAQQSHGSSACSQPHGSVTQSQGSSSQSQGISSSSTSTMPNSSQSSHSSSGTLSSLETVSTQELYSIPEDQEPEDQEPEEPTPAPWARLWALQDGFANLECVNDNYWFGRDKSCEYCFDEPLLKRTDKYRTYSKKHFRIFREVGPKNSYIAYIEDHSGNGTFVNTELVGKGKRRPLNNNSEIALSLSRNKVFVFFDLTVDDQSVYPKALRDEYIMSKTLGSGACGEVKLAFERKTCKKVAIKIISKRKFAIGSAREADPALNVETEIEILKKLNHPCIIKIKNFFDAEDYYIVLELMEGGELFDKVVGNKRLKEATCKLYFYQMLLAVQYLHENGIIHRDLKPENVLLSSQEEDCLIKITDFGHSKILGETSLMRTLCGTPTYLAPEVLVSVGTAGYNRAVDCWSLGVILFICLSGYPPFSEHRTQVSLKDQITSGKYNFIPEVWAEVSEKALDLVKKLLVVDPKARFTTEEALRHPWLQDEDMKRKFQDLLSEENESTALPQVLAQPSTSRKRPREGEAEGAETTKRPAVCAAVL

Sequence | % activity (CHK2(h)) | % activity (Fer(h)) | % activity (PKCε(h)) | % activity (PKCμ(h)) | % activity (CaMKIIδ(h)) | % activity (CaMKIV(h)) | % activity (Yes(h)) | % activity (TLK2(h)) | % activity (ACK1(h))
FAKLAARLYRKALARQLGVAA [MMI-0300] | 66% | 130% | 79% | 22% | 1% | 17% | 67% | – | –
HRRIKAWLKKIKALARQLGVAA (Mammal) [MMI-0500] | 13% | 196% | 23% | 10% | 1% | -1% | – | 133% | 64%
KAFAKLAARLYRKALARQLGVAA [MMI-0400] | 54% | 108% | 59% | 14% | 2% | 18% | 14% | 151% | 95%
YARAAARQARAKALARQLGVAA [MMI-0100] | – | – | – | 79% | – | – | – | – | –
YARAAARQARAKALNRQLGVA (Mammal) [MMI-0200] | – | 101% | 98% | 73% | 2% | 71% | 93% | 129% | 97%
